{"source": "patent US5534428", "test_system": "SstI restriction endonuclease (Streptomyces stanford ATCC 29415)", "assay": "cleavage_in_vitro", "conditions": "pSst105 crude extract; REact 2 buffer, 37 C, 1 h; assay substrate Ad-2 DNA per Example 1.7", "data": [{"substance": "Adenovirus-2 DNA", "values": [{"measurement": "activity (units per g cells)", "value": "> 400000"}]}]}
